Assay results taken from the supplement of paper PMC10567573.

B1: PRIM1 (parent)
chain: CCSSADICPKCWTLMTMAIRIIDR
B2: FAM46D (parent)
chain: LELKFVSSLRRQFEFSVDSFQIVL

Variants of: B1
Assay: protein stability index of a GFP-peptide fusion (GPS, HEK-293T) (PSI 1-6); higher = more stable
Conditions: c terminus: a fixed tail appended
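Also: lentivirally expressed fusions sorted by FACS into six bins by GFP to DsRed ratio, PSI derived from sequencing read proportions per bin multiplied by bin number.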

Protein stability index, by site and new letter:
R24: T 1.97 | F 1.68 | W 2.19 | H 1.95 | V 2.46 | I 1.69 | Q 1.52 | M 2.12 | N 1.8 | Y 1.78 | L 1.91 | P 3.32 | G 1.81 | K 1.25

Variants of: B2
Assay: as above
Conditions: c terminus: a fixed tail appended

Protein stability index of substitutions, site by site:
E14: S 2.66 | P 3.67 | T 4.77 | C 3.17 | Q 2.24 | K 3.16 | V 2.06 | A 3.98 | L 2.84 | R 2.17 | D 4 | W 2.46 | I 3.52 | G 3.4 | M 2.77 | Y 3.27 | N 2.89
F15: T 2.43 | N 4.46 | P 2.92 | I 4.07 | L 3.69 | K 2.13 | W 3.57 | H 5.32 | D 2.09 | G 3.1 | M 2.58 | R 2.68 | Q 3.16 | C 2.42 | V 4.5 | S 3.33 | E 3.22
L1: A 2.03 | G 2.02 | K 2.36 | V 2.79 | M 4.32 | W 1.92 | R 2.33 | Y 2.56 | N 2.9 | S 2.57 | E 2.65 | Q 2.32 | H 2.49 | I 2.7 | T 2.9 | F 3.04 | D 1.9 | P 2.78
S7: H 3.18 | G 2.76 | E 4.25 | N 1.88 | Y 3.11 | Q 2.43 | D 3.25 | M 3.02 | T 1.5 | K 2.57 | W 2.37 | R 2.91 | C 3.17 | I 2.85 | P 2.67 | A 3.21 | F 4.35
R10: A 3 | H 2.93 | I 3.38 | W 2.01 | T 2.83 | P 3.23 | F 2.79 | Y 2.17 | S 3.46 | V 2.04 | M 2.72 | L 3.46 | N 2.23 | C 2.67
S16: V 3.91 | D 3.15 | T 4.1 | R 3.43 | K 3.51 | C 3.91 | A 3.32 | E 2.89 | F 2.79 | Y 2.83 | H 2.69 | P 3.75 | M 3.57 | I 2.93 | N 3.05
L3: K 3.37 | R 2.23 | S 3.84 | I 2.5 | W 2.77 | C 2.84 | Q 2.38 | E 1.66 | Y 2.2 | V 3 | F 2.43 | A 3.39 | D 3.2 | T 3.15 | P 1.62 | G 2.11 | N 2.3 | H 1.82
Q12: M 3.09 | F 2.68 | K 3.09 | V 3.44 | G 2.76 | W 3.97 | C 1.78 | H 2.46 | D 2.52 | E 2.55 | Y 2.8 | S 3.06 | T 2.42 | R 2.39 | P 2.65 | N 2.49 | A 4.78
F5: R 2.39 | M 4.22 | Y 3.22 | S 3.1 | N 2.37 | T 2.8 | G 2.6 | V 3.54 | C 3.27 | E 1.4 | I 3.77 | D 2.09 | Q 2.59 | A 3.94 | K 1.64 | P 3.01 | L 1.96
R11: G 3.69 | Y 3.14 | E 3.47 | N 3.06 | L 2.62 | A 4.7 | T 3.4 | H 2.97 | Q 3.05 | C 3.03 | W 4.32 | M 2.27 | K 3.21 | S 2.99 | F 3.08 | D 1.97 | I 2.54
V17: M 4.44 | S 2.19 | G 2.62 | C 3.37 | I 2.8 | N 3.45 | F 2.88 | L 3.25 | K 2.76 | T 2.76 | R 3.4 | Y 1.51 | P 2.44 | W 4.01 | D 4.26 | H 3.65 | A 2.4 | E 1.91
E2: N 2.6 | A 2.56 | H 2.95 | I 1.99 | C 2.74 | S 3 | T 2.78 | G 2.65 | R 3.42 | V 3.32 | K 3.23 | D 2.46 | W 2.81 | Q 2.48 | L 1.7 | Y 3.04 | F 2.6 | M 2.57
S19: M 4.08 | C 2.44 | D 3.06 | K 2.88 | F 3.6 | A 3.69 | I 4.06 | G 3.42 | P 2.18 | E 3.31 | L 2.88 | R 2.38 | H 3.92 | N 4
S8: V 1.71 | K 2.05 | N 2.92 | F 1.95 | Y 2.44 | C 2.96 | W 2.98 | T 3 | L 3.46 | R 2.15 | D 2.97 | H 3.22 | P 2.69 | Q 2.95 | G 2.81 | A 2.57 | M 3.34
K4: S 3.75 | M 4.16 | N 2.95 | D 3.48 | I 2.9 | P 3.77 | L 3.25 | Q 3.84 | H 3.46 | E 2.38 | V 4.21 | R 3.25 | G 2.9 | F 3.11 | A 2.28 | Y 2.06 | C 3.62
F13: N 2.82 | C 4.36 | T 3.34 | S 2.67 | V 3.73 | R 3.23 | I 3.87 | Q 2.84 | L 3.36 | E 2.55 | K 2.91 | W 3.64 | Y 1.76 | D 2.54 | H 2.73
D18: E 1.74 | H 4.76 | A 4.25 | I 3.49 | N 3.43 | C 2 | Y 3.18 | S 2.94 | Q 3.71 | M 4.61 | W 3.27 | L 2.1 | F 2.06 | K 3.6 | P 3.29 | G 2.54 | V 3.13 | R 3.4
V6: W 4 | S 2.49 | M 2.61 | R 3.15 | N 4.62 | L 2.81 | Y 3.16 | H 2.9 | E 2.75 | K 3.51 | D 2.73 | P 2.08 | I 2.95 | C 2.22 | Q 1.56 | T 3.31 | A 2.77 | G 2.81 | F 2.38
L9: Q 3.29 | N 2.64 | I 2.75 | R 3.73 | W 3.47 | S 3.64 | P 3.04 | Y 2.01 | H 2.9 | D 3.93 | K 2.41 | T 2.99 | F 2.95 | E 1.82 | C 3.2 | V 4.14 | A 2.93
